Reference: patent publication US20110129473A1 (LABORATORIOS SILANES S A DE C V, published 2011)

Target: T1, recombinant human cytokine TNFα (human, UniProt P01375 77-233)
T1 construct: Recombinant human TNFα used for immunisation, panning and ELISA; also called human TNFα; rhTNF-α
Test: phage display selection and ELISA on coated TNFα
Procedure: Phage selection rounds, amplification and recovery: There were performed 4 rounds of phage selection with TNFα 1 μg in PBS in an ELISA plate, sealed and incubating over night at 4° C., the cytokine is eliminated and blocking with 150 μl of PBS-BSA (3%), sealed and incubated 1 hr at 37° C.; discarding and adding 50 μl of phage-antibodies for each well, sealed and incubated with TBS-Tween 20 (0.05%) 150 for each well using the pipette to agitate. The solution is discarded and the phage-antibodies specific for TNFα are harvested after adding 50 μl per well of TBS-Trypsin [10 mg/ml]. The plate is sealed and incubated during 30 minutes, 37° C. The phage-antibodies are recovered and used to infect a culture of E. coli ER2537 (2 ml) electro-compentents (DO₆₀₀=1), during 15 minutes at room temperature. The selected phage-antibodies are amplified using serial dilutions incubating the transformants in SB media with carbencillin and helper phage VCSM13 with kanamycin. The phage-antibodies were recovered from the infected cultures of ER2537 cells by centrifugations using first PEG-8000 4% and NaCl 3, and PBS_BSA 1% (2 ml) filtering the supernatant with a 0.22 μm membrane, using 50 μl para to be selected according to the TNFα binding. […]

T1 sequence (P01375 77-233 limits assumed): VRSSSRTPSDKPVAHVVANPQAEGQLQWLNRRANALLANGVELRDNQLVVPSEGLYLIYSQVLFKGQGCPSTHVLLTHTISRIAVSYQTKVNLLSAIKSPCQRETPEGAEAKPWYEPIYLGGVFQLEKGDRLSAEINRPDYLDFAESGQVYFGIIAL

B1: vNAR clone 65 (anti-TNFα vNAR from Heterodontus francisci) (other)
chain: ASLDQTPRTATRETGESLTVNCVLVDANYGLYNTSWYRNNPGSTDREHITIGGRYVESVNKGAKSFSLQIKDMTVEDSGTYYCKARESDYNRVGIRDYKDYDGAGTVLTVN
notes: Shark IgNAR single variable domain (vNAR), expressed from pCOMb3X in E. coli; also called TNF65
binding result: binds
